Results: US20180142032A1 (Sanofi, published 2018)
Changes are numbered by the printed parent chain. Blank lines part the entries; values can stand above or below the binder they belong to.

Key:
[1] = target: T1, LAMP1_hL1_mL2_hL34_ΔGYQTI (human; mouse, UniProt P11279 29-412); assay: flow cytometry, transfected 293-F cells
T1 construct: on cells; also called pXL5997
T1 chain: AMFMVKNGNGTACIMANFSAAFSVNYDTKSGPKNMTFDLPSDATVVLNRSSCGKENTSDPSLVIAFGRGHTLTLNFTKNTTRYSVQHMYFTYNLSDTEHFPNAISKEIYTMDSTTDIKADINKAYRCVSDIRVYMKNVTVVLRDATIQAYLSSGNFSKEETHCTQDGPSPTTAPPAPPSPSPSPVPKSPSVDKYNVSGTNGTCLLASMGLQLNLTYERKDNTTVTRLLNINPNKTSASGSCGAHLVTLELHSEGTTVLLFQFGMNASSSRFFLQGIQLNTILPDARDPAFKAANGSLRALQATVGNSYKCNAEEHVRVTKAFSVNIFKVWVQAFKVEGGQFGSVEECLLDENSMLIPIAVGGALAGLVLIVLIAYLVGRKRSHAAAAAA

LAMP1_mseq6_ΔGYQTI = target: T2, LAMP1_mseq6_ΔGYQTI (human; mouse, UniProt P11279 29-412); assay: flow cytometry, transfected 293-F cells
T2 construct: on cells; also called pXL5990
T2 chain: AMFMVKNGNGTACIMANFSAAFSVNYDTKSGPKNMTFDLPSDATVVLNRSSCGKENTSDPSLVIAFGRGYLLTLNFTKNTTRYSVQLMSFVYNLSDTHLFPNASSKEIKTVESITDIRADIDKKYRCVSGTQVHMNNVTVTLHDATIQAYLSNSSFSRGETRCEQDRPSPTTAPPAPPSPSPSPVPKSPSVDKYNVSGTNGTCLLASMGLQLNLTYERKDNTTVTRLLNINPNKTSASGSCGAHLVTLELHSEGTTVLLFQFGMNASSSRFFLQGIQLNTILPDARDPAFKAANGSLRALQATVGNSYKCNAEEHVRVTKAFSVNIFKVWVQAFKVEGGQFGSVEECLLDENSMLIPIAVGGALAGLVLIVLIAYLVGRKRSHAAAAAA

LAMP1_mseq11_ΔGYQTI = target: T3, LAMP1_mseq11_ΔGYQTI (human; mouse, UniProt P11279 29-412); assay: flow cytometry, transfected 293-F cells
T3 construct: on cells; also called pXL5995
T3 chain: T2 chain with Y70H, L71T, K78R, T80A, N153S, S154G, S155N, R158K, G159E

[2] = target: T4, cynomolgus monkey LAMP1 at the cell surface (cynomolgus monkey, UniProt P11279 29-417 (human entry)); assay: flow cytometry, HCT116 stable clones; cynomolgus LAMP1 on recombinant HCT116 stable clones
T4 construct: also called cynoLAMP1; cynomolgus LAMP1
T4 chain: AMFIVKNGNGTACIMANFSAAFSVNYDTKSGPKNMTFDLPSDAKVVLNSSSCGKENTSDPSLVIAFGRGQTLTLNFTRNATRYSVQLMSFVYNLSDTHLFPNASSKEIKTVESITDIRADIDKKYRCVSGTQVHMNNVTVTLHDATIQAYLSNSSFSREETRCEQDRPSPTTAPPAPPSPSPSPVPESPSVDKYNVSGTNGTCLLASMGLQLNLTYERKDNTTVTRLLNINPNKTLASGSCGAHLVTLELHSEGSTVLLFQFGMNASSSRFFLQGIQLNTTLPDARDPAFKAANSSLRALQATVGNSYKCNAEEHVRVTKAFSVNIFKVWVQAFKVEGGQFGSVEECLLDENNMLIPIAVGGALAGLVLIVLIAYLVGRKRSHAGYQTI
Method: HCT116 cells were infected by a lentiviral vector allowing stable integration of the human or the cynomolgus LAMP1 CDS in genomic DNA of cells. Individual clones with different densities of human or cynomolgus LAMP1 cell surface localization were derived from a pool of HCT116 infected cells. […] 100 μL/well of goat anti-human IgG conjugated with Alexa488 (Invitrogen; # A11013) was added for 1 h at 4° C. and washed two times with PBS 1% BSA. The antibody binding was evaluated after centrifugation and resuspension of cells in 100 μl fixing solution (paraformaldehyde at 4% in PBS). Samples were read using Galaxy® Flow Cytometry System (Partec). EC50 values were estimated using BIOST@T-SPEED software.

[3] = target: T5, human LAMP1 at the cell surface (human, UniProt P11279 29-417); assay: flow cytometry, HCT116 stable clone
T5 construct: native on tumour cells (PDX, Colo205, SW480, LS174T) or from the cloned CDS NM_005561.3 in HEK293 and HCT116; signal peptide 1-28 left out; also called huLAMP1; full length human LAMP1
T5 sequence: T2 chain with Y70H, L71T, K78R, T80A, A385G, A386Y, A387Q, A388T, A389I
Description: (§1) HCT116 stable clone was obtained as described above. HEK293 cells were infected by a lentiviral vector allowing stable integration of the human or the cynomolgus LAMP1 CDS in genomic DNA of cells. Individual clones with different densities of cynomolgus LAMP1 cell surface localization were derived from a pool of HEK293 infected cells. Protocol as described in example above. EC₅₀ values were estimated using BIOST@T-SPEED software.

[4] = target: T4, cynomolgus monkey LAMP1 at the cell …; assay: flow cytometry, HEK293 stable clone
Description: as §1

B1: huMAb1_1 (antibody, human IgG1, kappa)
heavy: not shown
light: DIQMTQSPSSLSASVGDRVTITCKASQDIDRYMAWYQDKPGKAPRLLIHDTSTLQSGVPSRFSGSGSGRDYTLTISNLEPEDFATYYCLQYDNLWTFGGGTKVEIKRTVAAPSVFIFPPSDEQLKSGTASVVCLLNNFYPREAKVQWKVDNALQSGNSQESVTEQDSKDSTYSLSSTLTLSKADYEKHKVYACEVTHQGLSSPVTKSFNRGEC
notes: humanized, VH1-huIgG1 and VL1-huCk
binding result [1]: no binding | binding result (LAMP1_mseq6_ΔGYQTI): no binding | binding result (LAMP1_mseq11_ΔGYQTI): no binding

EC50 [2]: 5.5 nM
B2: MAb1 (antibody, mouse IgG2a, kappa)
heavy: QVQLQQSGAELVKPGASVKMSCKASGYIFTNYNIHWVKKSPGQGLEWIGAIYPGNGDAPYSQKFKDKATLTADKSSSTTYMQLSRLTSEDSAVYYCVRANWDVAFAYWGQGTLVSVSAAKTTAPSVYPLAPVCGDTTGSSVTLGCLVKGYFPEPVTLTWNSGSLSSGVHTFPAVLQSDLYTLSSSVTVTSSTWPSQSITCNVAHPASSTKVDKKIEPRGPTIKPCPPCKCPAPNLLGGPSVFIFPPKIKDVLMISLSPIVTCVVVDVSEDDPDVQISWFVNNVEVHTAQTQTHREDYNSTLRVVSALPIQHQDWMSGKEFKCKVNNKDLPAPIERTISKPKGSVRAPQVYVLPPPEEEMTKKQVTLTCMVTDFMPEDIYVEWTNNGKTELNYKNTEPVLDSDGSYFMYSKLRVEKKNWVERNSYSCSVVHEGLHNHHTTKSFSRTPGK
light: DIQMTQSPPSLSASLGGKVTITCKASQDIDRYMAWYQDKPGKGPRLLIHDTSTLQPGIPSRFSGSGSGRDYSFSISNLEPEDIATYYCLQYDNLWTFGGGTKLEIKRADAAPTVSIFPPSSEQLTSGGASVVCFLNNFYPKDINVKWKIDGSERQNGVLNSWTDQDSKDSTYSMSSTLTLTKDEYERHNSYTCEATHKTSTSPIVKSFNRNEC
notes: murine monoclonal IgG, kappa, from hybridoma; also called murine MAb1

EC50 [3]: 7.6 nM | EC50 [4]: 4 nM
B3: MAb3 (antibody, V domains shown)
VH: QIQLVQSGPELKKPGETVKISCKASGYIFTNYGMNWVKQAPGKGLKWMGWINTYTGESRYADDFKGRFALSLETSASTAYLQINNLENEDMATYFCAREDYYGNSPWFFDVWGAGTTVTVSS
VL: DIQMTQTTSSLSASLGDRVTISCNASQGINKYLNWYQQKPDGTVKLLIYYTSTLHSGVPSRFSGSGSGTDYSLTINNLEPEDIATYYCQQYTKLPFTFGSGTKLEIK
notes: murine monoclonal IgG, kappa, from hybridoma; also called murine MAb3
